Experimental findings from US10138280B2, “Polypeptides targeting glycosylated MUC2 proteins, methods of synthesis, their nucleic acids and uses thereof” (INSTITUT PASTEUR, priority 2011, dated 2018) are described below.

Data set [1] can be described thus: Analytical gel filtration for quaternary structure. The settings on record: gel filtration at 0.1 and 1 mg/ml; phosphate buffer. In kind it is physicochemical. The protocol:
FIGS. 7A-7D. Biochemical properties of MUB70. (FIG. 7A) MUB70 total charge was calculated using Protein Calculator program (Scripps website). (FIG. 7B) Kytes and Doolittle hydropathy profile of MUB70 was generated using ExPASy bioinformatical tools. (FIG. 7C) Validation of biot-MUB70 purity by gel filtration chromatography on Superdex 200 5/150 GL column. (FIG. 7D) Partition coefficients (Kav) of the standard proteins (ferritin, 440 kDa; aldolase, 158 kDa; ovalbumin, 43 kDa; ribonuclease A, 13.7 kDa; aprotinin, 6.5 kDa) were calculated according to Kav=(Ve−V0)/(Vt−V0) (Ve, elution volume; V0, void volume; Vt, total volume of the gel bed) and plotted against the corresponding molecular masses. The molecular mass of biot-MUB70 calculated using the calibration curve equation: log(Mr)=3.12−3.1 Kav.
[…] Standard proteins from the gel filtration calibration kit (ferritin, aldolase, ovalbumin, ribonuclease A, aprotinin; GE Healthcare, Uppsala, Sweden) were used for calibration. As control biot-MUB70 was visualized on 10% SDS-PAGE gel stained by Coomassie.
The theoretical molecular weight (MW) of a biotinylated MUB70 (biot-MUB70) is 8.8 kDa. […] This observation was confirmed with the fluorescent Cy5-MUB70 compound (data not shown). […] The elution profile was recorded at 280 nm. […]
(In general: In gel filtration, larger molecules generally elute earlier.)

The target in the next data set is T1, Muc2 (Homo sapiens, UniProt Q02817).
T1 construct: human colonic mucus extracts (produced in vitro from differentiated HT-29 MTX cells, see Methods); endogenous in cells; host or cells: HT-29 MTX human colonic epithelial cells, differentiated (21 days)
Description: Pulldown assay with dot blot immunodetection, Muc2. In kind it is binding.

For a further data set, the target named is T2, Muc5ac (Homo sapiens, UniProt P98088).
T2 construct: soluble human colonic mucus extracts were initially obtained from HT-29 MTX cell secretion product; endogenous in cells; host or cells: HT-29 MTX cells (secreted mucus, soluble fraction)
Description: Pulldown assay with dot blot immunodetection, Muc5ac. In kind it is binding. The note with it: soluble human colonic mucus extract from HT-29 MTX; detected in the input. An excerpt: (§1) FIGS. 4A-4B. Cy5-MUB70 is specifically binding to the glycosylated moiety of Muc2 secreted in the colon mucus layer. (FIG. 4A) Immunodetection of Muc2, Muc5ac, Muc5b and Muc6 (dotblot analysis) on human mucus extracts eluted after a pulldown assay performed with biot-MUB70 on avidin conjugated beads (see Methods). Biotin is used as a negative control. Immunodetection of Muc2 (dotblot analysis) on deglycosylated mucus extracts eluted after a pulldown assay performed with biot-MUB70 on avidin conjugated beads. Non-deglycosylated mucus extract is used as a positive control. (FIG. 4B) Co-localization of Muc2 (green) and Cy5-MUB (blue) observed on fixed (Carnoy) human colon samples. Actin is stained in red (Phall.RRX). Observations are performed using a confocal microscope. Bars is 20 μm. […]
(§2) Soluble mucus components used in pulldown assays (input and output) were transferred to nitrocellulose membranes (Invitrogen), which were blocked in PBS/5% milk and further incubated with the primary antibodies diluted in PBS/1% milk/0.01% Tween20 (Sigma-Aldrich) overnight. […] Antibody binding was detected with chemiluminescence (ECL kit, GE Healthcare).

Another data set addresses T3, Muc6 (Homo sapiens, UniProt Q6W4X9).
T3 construct: soluble human colonic mucus extracts were initially obtained from HT-29 MTX cell secretion product; endogenous in cells; host or cells: HT-29 MTX cells (secreted mucus, soluble fraction)
The data set can be described thus: Pulldown assay with dot blot immunodetection, Muc6. In kind it is binding. The note with it: soluble human colonic mucus extract from HT-29 MTX; detected in the input.
Source text: as §1, §2

For the next data set, the target named is T4, Muc5b (Homo sapiens, UniProt Q9HC84).
T4 construct: soluble human colonic mucus extracts were initially obtained from HT-29 MTX cell secretion product; endogenous in cells; host or cells: HT-29 MTX cells (secreted mucus, soluble fraction)
The data set can be described thus: Pulldown assay with dot blot immunodetection, Muc5b. The format is binding. The note with it: soluble human colonic mucus extract from HT-29 MTX; detected in the input.
Source text: as §1, §2

T3 sequence (Q6W4X9 23-2439): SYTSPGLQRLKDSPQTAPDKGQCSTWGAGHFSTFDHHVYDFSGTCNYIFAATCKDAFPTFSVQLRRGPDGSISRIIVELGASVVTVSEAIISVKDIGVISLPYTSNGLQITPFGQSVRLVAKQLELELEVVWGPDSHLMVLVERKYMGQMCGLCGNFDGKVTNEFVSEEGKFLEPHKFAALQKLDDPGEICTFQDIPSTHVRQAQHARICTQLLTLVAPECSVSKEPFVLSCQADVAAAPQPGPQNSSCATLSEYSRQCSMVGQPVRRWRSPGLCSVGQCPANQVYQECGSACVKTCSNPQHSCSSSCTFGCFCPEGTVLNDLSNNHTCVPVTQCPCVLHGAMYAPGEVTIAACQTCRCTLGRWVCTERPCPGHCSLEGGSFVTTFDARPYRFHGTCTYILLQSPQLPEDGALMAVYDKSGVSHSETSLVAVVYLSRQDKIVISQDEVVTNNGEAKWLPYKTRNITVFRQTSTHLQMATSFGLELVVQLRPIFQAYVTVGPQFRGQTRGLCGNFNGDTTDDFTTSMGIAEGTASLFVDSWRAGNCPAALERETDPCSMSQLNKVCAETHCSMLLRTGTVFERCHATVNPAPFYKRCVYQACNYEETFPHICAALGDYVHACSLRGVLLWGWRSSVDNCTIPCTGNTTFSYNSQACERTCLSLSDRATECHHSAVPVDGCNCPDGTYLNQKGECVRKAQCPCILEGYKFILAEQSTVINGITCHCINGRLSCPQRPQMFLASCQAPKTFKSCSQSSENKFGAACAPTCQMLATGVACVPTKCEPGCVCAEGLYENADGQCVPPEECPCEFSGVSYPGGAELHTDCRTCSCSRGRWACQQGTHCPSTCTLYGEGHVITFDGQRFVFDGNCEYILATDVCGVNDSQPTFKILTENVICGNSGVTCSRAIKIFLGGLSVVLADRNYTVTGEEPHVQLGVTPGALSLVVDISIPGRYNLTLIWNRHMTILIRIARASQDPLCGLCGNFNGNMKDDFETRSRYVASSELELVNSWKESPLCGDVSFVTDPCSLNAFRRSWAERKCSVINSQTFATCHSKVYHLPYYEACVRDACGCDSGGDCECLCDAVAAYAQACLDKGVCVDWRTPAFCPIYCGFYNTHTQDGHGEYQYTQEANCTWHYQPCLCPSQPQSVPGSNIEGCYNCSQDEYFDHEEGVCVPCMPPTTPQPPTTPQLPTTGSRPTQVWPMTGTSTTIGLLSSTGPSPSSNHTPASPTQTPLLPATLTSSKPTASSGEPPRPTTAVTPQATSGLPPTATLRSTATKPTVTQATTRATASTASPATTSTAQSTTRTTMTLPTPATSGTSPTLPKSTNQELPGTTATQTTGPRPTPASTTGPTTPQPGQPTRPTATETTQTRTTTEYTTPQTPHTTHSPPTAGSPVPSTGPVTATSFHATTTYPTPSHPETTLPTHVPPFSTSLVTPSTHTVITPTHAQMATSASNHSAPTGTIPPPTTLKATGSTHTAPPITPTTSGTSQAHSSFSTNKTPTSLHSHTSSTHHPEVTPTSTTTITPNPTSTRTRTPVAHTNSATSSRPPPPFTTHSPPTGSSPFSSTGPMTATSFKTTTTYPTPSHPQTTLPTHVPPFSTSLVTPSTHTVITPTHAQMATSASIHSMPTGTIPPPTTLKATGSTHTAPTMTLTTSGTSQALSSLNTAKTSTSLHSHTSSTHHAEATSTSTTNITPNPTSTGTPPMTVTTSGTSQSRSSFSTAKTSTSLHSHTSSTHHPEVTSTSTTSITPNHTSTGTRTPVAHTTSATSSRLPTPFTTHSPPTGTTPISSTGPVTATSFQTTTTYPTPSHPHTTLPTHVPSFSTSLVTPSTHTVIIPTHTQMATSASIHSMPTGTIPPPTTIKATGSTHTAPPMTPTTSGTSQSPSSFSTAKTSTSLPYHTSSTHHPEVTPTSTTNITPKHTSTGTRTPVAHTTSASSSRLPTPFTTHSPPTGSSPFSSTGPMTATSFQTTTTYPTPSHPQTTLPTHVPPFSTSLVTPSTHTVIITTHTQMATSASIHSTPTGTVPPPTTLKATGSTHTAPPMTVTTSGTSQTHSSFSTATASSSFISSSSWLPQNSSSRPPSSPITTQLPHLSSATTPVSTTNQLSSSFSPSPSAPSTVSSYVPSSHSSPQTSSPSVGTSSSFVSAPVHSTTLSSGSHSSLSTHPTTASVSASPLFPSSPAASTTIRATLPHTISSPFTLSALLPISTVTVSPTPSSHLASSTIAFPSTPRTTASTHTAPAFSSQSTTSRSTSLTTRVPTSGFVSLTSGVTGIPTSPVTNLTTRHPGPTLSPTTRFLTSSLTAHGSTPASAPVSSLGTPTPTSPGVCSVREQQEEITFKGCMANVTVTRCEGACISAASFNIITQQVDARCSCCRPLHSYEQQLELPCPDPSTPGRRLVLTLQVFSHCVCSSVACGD

B1: biot-MUB70: biotinylated form of MUB70 (maleimide-PEG2-biotin on N-terminal cysteine) (conjugate)
peptide: CVHVQYIDGETDQMLRQDDLDGYTDETIPYSTAEGIKKFEGDGYELFKDNFPAGEKFDNDDTNDQFYTVIF
Consider B1, for which, in data set [1], the quaternary structure result is “exists as trimer”. Moreover, the “Muc2 interaction after chemical deglycosylation of mucus extract” value with Muc2 (chemically deglycosylated mucus extract) was “abolished the interaction”. Besides, the “Muc2 interaction after desulfatation of mucus extract” value with Muc2 (desulfatation (glycosylsulfatase)) is “loss of this interaction”. Further, in the data set with Muc2 (soluble human colonic mucus extract from HT-29 MTX, avidin beads), the “Muc2 in eluted fraction of pulldown” value was “immunodectected in the eluted fraction”. For the same molecule, in the data set with Muc5ac, the “Muc5ac in eluted fraction of pulldown” value is on record as “absent from the eluted fraction”. For the same molecule, the “Muc6 in eluted fraction of pulldown” value with Muc6 is on record as “absent from the eluted fraction”. Further, the “Muc5b in eluted fraction of pulldown” value with Muc5b is reported as “absent from the eluted fraction”.
